Measured values reported in patent US20180193430, “COMPOSITIONS AND METHODS TO INHIBIT VIRAL REPLICATION” (published 2018).

T1: RIG-I wild-type (Homo sapiens, UniProt O95786 SEQ:1-925)
T1 chain: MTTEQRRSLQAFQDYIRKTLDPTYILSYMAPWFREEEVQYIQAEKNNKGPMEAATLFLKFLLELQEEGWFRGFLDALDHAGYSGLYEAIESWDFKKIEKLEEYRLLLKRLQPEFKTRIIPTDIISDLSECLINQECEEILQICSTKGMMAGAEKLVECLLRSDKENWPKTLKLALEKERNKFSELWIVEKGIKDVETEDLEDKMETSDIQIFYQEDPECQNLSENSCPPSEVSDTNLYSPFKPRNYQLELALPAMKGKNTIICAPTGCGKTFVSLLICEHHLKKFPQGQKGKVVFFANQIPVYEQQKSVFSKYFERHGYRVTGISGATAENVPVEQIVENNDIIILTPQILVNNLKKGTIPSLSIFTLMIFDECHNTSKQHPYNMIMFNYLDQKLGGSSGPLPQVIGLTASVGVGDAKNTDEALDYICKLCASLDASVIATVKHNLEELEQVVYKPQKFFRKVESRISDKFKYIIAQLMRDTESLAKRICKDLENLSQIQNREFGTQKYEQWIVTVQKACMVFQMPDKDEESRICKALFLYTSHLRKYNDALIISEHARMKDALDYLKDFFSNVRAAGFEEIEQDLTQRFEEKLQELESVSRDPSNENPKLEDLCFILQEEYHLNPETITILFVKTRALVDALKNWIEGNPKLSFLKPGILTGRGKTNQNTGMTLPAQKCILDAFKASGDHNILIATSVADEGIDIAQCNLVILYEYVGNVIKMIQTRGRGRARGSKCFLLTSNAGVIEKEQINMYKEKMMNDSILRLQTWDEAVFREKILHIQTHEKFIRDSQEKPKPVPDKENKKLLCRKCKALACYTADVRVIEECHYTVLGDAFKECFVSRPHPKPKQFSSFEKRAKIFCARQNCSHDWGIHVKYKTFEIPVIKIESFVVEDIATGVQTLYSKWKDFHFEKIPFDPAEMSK

T2: RIG-I-N495D (Homo sapiens, UniProt O95786 SEQ:1-925, N495D)
T2 sequence: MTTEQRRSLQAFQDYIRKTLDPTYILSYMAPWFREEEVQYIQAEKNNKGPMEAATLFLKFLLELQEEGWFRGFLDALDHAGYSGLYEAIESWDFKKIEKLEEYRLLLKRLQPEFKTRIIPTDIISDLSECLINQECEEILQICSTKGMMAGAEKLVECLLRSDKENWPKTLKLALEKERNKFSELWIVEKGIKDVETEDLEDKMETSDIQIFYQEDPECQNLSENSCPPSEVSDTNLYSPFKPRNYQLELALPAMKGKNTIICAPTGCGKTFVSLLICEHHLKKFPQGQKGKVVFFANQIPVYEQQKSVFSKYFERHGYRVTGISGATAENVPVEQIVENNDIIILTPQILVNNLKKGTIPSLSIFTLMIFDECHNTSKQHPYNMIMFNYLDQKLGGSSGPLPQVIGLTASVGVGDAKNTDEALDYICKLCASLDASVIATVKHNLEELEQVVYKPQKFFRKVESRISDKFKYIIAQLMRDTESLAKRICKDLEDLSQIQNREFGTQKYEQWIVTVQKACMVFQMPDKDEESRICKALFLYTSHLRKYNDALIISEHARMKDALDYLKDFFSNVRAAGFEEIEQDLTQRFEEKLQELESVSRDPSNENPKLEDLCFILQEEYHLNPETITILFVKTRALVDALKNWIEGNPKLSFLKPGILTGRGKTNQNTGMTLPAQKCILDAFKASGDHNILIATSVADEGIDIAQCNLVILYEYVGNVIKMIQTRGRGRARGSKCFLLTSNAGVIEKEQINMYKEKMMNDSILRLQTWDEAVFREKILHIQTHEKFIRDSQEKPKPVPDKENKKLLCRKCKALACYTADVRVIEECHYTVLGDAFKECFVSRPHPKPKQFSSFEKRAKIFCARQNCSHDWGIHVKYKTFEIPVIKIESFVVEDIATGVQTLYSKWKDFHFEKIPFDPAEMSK

T3: RIG-I-K270A (Homo sapiens, UniProt O95786 SEQ:1-925, K270A)
T3 sequence: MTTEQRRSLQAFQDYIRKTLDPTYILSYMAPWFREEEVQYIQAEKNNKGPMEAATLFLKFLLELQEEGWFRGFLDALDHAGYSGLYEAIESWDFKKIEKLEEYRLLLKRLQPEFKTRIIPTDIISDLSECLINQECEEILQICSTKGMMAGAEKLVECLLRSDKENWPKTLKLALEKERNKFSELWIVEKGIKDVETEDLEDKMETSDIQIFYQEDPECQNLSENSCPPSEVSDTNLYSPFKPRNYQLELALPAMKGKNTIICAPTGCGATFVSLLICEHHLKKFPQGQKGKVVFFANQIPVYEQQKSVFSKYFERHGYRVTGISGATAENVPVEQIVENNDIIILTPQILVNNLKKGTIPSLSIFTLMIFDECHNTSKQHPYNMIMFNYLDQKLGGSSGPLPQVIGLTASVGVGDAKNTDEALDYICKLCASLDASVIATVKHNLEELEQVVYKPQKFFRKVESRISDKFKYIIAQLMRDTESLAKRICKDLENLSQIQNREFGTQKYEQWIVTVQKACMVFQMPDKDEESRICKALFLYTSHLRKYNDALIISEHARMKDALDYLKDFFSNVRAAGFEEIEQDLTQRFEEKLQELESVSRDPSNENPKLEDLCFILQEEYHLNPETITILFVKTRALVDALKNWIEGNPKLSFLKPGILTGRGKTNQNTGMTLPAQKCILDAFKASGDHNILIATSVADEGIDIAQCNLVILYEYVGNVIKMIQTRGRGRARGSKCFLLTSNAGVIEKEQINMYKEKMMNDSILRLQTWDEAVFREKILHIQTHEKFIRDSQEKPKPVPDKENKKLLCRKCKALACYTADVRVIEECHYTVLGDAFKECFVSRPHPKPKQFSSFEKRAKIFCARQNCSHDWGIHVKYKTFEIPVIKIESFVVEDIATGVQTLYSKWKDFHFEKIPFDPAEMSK


Experiments:
[1] = target: T1, RIG-I wild-type; experiment: EMSA; forms the slowly migrating complex with dsRNA lacking 5'-triphosphate; 1.5 mM MgCl2, room temperature; details: tags: Flag; purified from transfected HEK293T; label: 32P at 5' end of bottom strand; blunt 19 bp duplex lacking 5'-triphosphate
[2] = target: T2, RIG-I-N495D; experiment: EMSA; affinity comparable to WT; 1.5 mM MgCl2, room temperature; details: tags: Flag; purified from transfected HEK293T; label: 32P at 5' end of bottom strand; blunt 19 bp duplex
[3] = target: T3, RIG-I-K270A; experiment: EMSA; affinity similar to WT; 1.5 mM MgCl2, room temperature; details: tags: Flag; purified from transfected HEK293T; label: 32P at 5' end of bottom strand; blunt 19 bp duplex
[4] = target: T1, RIG-I wild-type; experiment: EMSA; two RIG-I:RNA complexes with increasing RIG-I; 20 mM Tris-HCl pH 8.0, 1.5 mM MgCl2, 1.5 mM DTT, room temperature; details: tags: Flag; purified from transfected HEK293T; label: 32P at 5' end of bottom strand; blunt 19 bp duplex

Row | Binder | binding result [1] | binding result [2] | binding result [3] | binding result [4]
1 | control dsRNA 19mer (dsRNA) RNA 1: GCAUGCGACCUCUGUUUGA RNA 2: UCAAACAGAGGUCGCAUGC | binds | – | – | –
2 | 5'-ppp-dsRNA 19mer (dsRNA, 5'-triphosphate on top strand) RNA 1: GCAUGCGACCUCUGUUUGA RNA 2: UCAAACAGAGGUCGCAUGC | – | binds | binds | binds
